{"source": "paper PMC4872099", "about": "(Nucleic Acids Research, 2016)", "molecules": {"B1": {"name": "phage T4 gp16 N-C fusion (amino acids 36-118 deleted; lacks helix alpha1 and helix alpha2) (natural protein, bacteriophage T4, UniProt P17311 1-164, looked up)", "chain": "MEGLDINKLLDISDLPGIDGEEIKVYEPLQLVEVKGAVPTGQMNIQNATVFMGSPTELMDEIGDAYEAQEAREKVINGTTD"}, "B2": {"name": "phage T4 small terminase (TerS) gp16, wild type (natural protein, bacteriophage T4, UniProt P17311 1-164, looked up)", "chain": "MEGLDINKLLDISDLPGIDGEEIKVYEPLQLVEVKSNPQNRTPDLEDDYGVVRRNMHFQQQMLMDAAKIFLETAKNADSPRHMEVFATLMGQMTTTNREILKLHKDMKDITSEQVGTKGAVPTGQMNIQNATVFMGSPTELMDEIGDAYEAQEAREKVINGTTD"}, "B3": {"name": "phage T4 gp16 mutant 3M (R98A, K102A, K108A) (natural protein, bacteriophage T4, UniProt P17311 1-164, looked up)", "chain": "B2 chain with R98A, K102A, K108A"}, "B4": {"name": "phage T4 gp16 mutant 4M (R98A, K102A, K105A, K108A) (natural protein, bacteriophage T4, UniProt P17311 1-164, looked up)", "chain": "B2 chain with R98A, K102A, K105A, K108A"}}, "key": {"[1]": {"target": "phage T4 gp16 oligomerization domain alone (N- and C-terminal domains deleted) (bacteriophage T4)", "assay": "SEC"}, "[2]": {"target": "the molecule itself", "assay": "SEC"}}, "note": "Residue numbers refer to the chain shown, from its start. Numbers in names are those of the source. Where “and” joins values, the source holds several entries; their conditions need not be identical. Equal values may be shown once."}
{"molecule": "phage T4 gp16 oligomerization domain alone (N- and C-terminal domains deleted) (domain or fragment)", "values": [{"measurement": "stoichiometry N", "setting": "[1]", "value": "11 and 12"}]}
{"molecule": "B1", "values": [{"measurement": "stoichiometry N", "setting": "[2]", "value": 2}]}
{"molecule": "B2", "values": [{"measurement": "binding result", "setting": "[2]", "value": "binds"}]}
{"molecule": "B3", "values": [{"measurement": "binding result", "setting": "[2]", "value": "binds"}]}
{"molecule": "B4", "values": [{"measurement": "stoichiometry N", "setting": "[2]", "value": "~6"}]}
